Test results as given in patent publication US20050282743A1, “Molecular interactions in cells” (Arbor Vita Corporation, priority 2001, published 2005).
Blank lines part the entries; values can stand above or below the substance they belong to. Ends that are not written are not given here. * marks the point of attachment. Biotin = O=C1N[C@H]2[C@H](CS[C@H]2CCCCC(=O)*)N1

What was measured:
Type in all cases: binding
[1] = biological target: T1, PDZ protein (GST-PDZ fusion) (Homo sapiens, UniProt Q13796); assay: G' assay (10 uM PL peptide), results of TABLE 7 and TABLE 12; settings: PDZ hAPXL, PDZ Domain 1
T1 construct: made in house; host or cells: E. coli (DH5alpha, BL21 or JM109)
T1 sequence (Q13796 whole entry, the tested form may be a part): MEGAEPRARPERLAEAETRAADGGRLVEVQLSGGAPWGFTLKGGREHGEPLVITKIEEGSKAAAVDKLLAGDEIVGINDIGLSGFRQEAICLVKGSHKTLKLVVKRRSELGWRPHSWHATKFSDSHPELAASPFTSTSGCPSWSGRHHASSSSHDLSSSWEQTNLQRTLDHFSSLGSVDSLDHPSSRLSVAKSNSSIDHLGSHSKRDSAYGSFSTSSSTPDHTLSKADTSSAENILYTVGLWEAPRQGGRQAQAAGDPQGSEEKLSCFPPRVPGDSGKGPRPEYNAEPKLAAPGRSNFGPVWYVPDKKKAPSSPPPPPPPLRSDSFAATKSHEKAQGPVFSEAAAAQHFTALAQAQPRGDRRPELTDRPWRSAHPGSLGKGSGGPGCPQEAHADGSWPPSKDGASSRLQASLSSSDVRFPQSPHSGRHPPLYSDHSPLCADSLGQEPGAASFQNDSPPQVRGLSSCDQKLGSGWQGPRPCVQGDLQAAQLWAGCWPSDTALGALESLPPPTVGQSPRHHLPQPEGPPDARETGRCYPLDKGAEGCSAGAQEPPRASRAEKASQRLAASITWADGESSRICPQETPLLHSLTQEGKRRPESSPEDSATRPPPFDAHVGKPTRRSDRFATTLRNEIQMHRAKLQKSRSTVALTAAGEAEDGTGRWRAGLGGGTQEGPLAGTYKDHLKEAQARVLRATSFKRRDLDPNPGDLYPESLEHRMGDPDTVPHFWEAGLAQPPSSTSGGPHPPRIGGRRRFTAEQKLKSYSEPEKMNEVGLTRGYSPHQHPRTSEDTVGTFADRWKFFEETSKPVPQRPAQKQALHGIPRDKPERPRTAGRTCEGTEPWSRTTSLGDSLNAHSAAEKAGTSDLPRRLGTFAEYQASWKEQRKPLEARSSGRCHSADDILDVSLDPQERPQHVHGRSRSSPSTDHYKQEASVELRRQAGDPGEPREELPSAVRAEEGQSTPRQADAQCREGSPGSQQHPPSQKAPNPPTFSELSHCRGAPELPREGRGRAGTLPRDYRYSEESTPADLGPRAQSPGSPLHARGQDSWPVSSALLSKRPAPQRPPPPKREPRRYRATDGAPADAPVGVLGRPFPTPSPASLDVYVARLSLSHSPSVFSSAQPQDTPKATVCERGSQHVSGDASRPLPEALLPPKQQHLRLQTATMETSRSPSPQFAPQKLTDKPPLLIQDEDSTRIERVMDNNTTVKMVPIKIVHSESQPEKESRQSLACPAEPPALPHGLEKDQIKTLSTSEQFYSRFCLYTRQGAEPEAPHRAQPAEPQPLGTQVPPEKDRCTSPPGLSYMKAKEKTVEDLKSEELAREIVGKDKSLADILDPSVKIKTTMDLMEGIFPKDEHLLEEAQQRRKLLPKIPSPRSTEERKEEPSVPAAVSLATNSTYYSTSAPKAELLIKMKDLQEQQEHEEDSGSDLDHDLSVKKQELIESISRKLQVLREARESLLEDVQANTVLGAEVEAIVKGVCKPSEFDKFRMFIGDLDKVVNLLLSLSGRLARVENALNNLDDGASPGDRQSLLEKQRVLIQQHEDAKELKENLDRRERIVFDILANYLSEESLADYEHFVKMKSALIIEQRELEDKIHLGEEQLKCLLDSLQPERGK
From the text: (§1) Each page of TABLE 7 and 12 includes seven columns. The columns in each table are numbered from left to right such that the left-most column in each table is column 1 and the right-most column in each table is column 7. Thus, the first column in each table is labeled “AVC ID”; this column simply lists an internal reference number used to refer to the carboxyl-terminal amino acids of the PL proteins listed in the second column. […] All PL peptides were biotinylated at the amino-terminus and the sequences of these PL peptides are presented in TABLE 8 (see end of specification).
(§2) This column provides the gene name for the PDZ portion of the GST-PDZ fusion that interacts with the PDZ-ligand to the left. For PDZ domain-containing proteins with multiple domains, the domain number is listed to the right of the PDZ (i.e., in column 5 labeled “PDZ Domain”), and indicates the PDZ domain number when numbered from the amino-terminus to the carboxy-terminus.
(§3) The third column labeled “Peptide Optimal Concentration” in the tables is a number reflective of the binding interaction between the PL protein and PDZ protein. […] The column labeled “Protein Optimal Concentration” refers to the protein concentration used to assay PL interaction (in ug/ml); a ‘0’ is indicative of 5 ug/ml protein concentration; any other value represents the concentration (in ug/ml) used to determine the dissociation constant for a given interaction.
(§4) Finally, the seventh column labeled “Classification” is another measure of the level of binding. In particular, it provides an absorbance value at 450 nm which indicates the amount of PL peptide bound to the PDZ protein. The following numerical values have the following meanings: ‘1’—A450 nm 0-1; ‘2’—A450 nm 1-2; ‘3’—A450 nm 2-3; ‘4’—A450 nm 3-4; ‘5’—A450 nm of 4 more than 2× repeated; ‘0’—A450 nm 0, i.e., not found to interact. Thus, higher numbers indicate stronger interactions.
(§5) For convenience, the assay conditions described in this section are referred to as the “G′ assay” and the “G″ assay,” with the specific conditions described in the preceding section on G assays being referred to as the “G^0 assay.” The “G′ assay” is identical to the “G^0 assay” except at step (2) the peptide concentration is 10 uM instead of 20 uM.

[2] = biological target: T2, PDZ protein (GST-PDZ fusion) (Homo sapiens, UniProt Q6P0Q8); assay: as above
T2 construct: made in house; host or cells: E. coli (DH5alpha, BL21 or JM109)
T2 sequence (Q6P0Q8 whole entry, the tested form may be a part): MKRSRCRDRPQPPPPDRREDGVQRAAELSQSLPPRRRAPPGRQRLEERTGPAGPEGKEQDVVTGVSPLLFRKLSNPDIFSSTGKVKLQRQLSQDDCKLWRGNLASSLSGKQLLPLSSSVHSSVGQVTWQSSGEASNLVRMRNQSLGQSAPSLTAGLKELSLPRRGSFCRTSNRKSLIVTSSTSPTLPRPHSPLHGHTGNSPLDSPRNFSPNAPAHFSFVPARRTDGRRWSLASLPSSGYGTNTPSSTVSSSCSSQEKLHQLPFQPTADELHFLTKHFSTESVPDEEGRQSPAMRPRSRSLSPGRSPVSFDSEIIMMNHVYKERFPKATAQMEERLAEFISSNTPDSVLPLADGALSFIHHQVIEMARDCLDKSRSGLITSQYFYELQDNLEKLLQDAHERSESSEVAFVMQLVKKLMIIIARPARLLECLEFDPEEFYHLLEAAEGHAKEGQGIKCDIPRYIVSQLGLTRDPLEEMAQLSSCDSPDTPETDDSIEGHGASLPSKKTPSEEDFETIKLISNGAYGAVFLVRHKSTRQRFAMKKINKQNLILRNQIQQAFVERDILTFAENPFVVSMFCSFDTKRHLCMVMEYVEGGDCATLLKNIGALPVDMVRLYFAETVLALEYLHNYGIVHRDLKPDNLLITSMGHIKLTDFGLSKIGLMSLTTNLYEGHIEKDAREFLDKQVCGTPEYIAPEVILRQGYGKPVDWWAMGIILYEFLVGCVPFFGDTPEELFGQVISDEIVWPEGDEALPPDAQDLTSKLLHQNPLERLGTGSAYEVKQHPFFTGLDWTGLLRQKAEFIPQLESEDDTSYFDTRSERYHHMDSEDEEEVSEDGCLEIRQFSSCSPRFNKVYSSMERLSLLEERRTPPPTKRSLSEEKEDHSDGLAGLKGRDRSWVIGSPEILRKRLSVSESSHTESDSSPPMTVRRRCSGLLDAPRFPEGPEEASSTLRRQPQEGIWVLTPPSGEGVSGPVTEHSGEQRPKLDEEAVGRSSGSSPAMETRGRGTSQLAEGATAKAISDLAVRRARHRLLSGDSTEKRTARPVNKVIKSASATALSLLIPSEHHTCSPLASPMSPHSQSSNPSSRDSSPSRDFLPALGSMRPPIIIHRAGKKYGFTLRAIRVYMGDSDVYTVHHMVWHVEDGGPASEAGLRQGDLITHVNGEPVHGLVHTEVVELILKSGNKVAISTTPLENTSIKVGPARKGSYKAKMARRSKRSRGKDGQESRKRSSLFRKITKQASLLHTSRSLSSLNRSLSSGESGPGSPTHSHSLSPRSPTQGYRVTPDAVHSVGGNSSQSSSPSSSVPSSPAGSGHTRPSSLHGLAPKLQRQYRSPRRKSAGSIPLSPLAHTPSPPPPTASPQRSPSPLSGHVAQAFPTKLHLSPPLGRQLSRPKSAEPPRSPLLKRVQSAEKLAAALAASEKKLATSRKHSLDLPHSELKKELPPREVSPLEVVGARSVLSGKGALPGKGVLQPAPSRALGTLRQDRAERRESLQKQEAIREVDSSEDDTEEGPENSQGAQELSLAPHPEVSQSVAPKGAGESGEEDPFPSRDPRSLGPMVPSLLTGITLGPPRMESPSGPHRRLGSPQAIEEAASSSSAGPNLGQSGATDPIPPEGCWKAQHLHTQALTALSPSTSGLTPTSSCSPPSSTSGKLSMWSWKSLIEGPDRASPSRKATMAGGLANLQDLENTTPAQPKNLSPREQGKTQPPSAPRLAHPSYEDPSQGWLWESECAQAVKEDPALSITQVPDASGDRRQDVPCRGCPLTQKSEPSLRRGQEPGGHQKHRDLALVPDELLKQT
From the text: as §1, §2, §3, §4, §5

[3] = system: PDZ protein (GST-PDZ fusion); assay: as above
From the text: as §1, §2, §3, §4, §5

[4] = biological target: T3, PDZ protein (GST-PDZ fusion) (Homo sapiens, UniProt Q9P202); assay: as above; settings: PDZ KIAA1526, PDZ Domain 1
T3 construct: made in house; host or cells: E. coli (DH5alpha, BL21 or JM109)
T3 sequence (Q9P202 1-907): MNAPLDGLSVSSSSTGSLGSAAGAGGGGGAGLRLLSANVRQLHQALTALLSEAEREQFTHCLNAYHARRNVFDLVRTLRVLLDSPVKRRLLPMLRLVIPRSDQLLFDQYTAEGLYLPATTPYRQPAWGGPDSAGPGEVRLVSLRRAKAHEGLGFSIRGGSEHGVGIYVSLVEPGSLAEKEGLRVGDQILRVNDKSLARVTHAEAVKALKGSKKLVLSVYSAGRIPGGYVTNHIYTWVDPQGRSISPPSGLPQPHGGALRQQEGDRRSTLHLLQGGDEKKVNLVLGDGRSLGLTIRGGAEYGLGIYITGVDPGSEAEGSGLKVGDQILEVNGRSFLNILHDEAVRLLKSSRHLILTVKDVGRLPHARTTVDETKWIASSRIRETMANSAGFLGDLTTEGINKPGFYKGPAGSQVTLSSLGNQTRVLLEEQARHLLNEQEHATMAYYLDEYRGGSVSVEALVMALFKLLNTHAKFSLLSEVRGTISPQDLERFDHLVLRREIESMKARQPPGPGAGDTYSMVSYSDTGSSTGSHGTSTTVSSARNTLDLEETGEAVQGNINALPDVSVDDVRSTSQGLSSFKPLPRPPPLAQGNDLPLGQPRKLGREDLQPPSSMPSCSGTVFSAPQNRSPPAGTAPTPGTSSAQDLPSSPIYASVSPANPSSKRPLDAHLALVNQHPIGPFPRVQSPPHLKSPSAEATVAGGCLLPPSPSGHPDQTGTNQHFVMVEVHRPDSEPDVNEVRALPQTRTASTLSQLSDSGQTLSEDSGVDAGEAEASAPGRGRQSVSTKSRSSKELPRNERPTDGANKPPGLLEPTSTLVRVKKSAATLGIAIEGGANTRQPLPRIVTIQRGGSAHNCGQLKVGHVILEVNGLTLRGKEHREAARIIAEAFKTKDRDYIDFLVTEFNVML
From the text: as §1, §2, §3, §4, §5

DLG-1 = biological target: T4, DLG-1 (Homo sapiens, UniProt Q12959); assay: G assay competition of short unlabeled peptides with biotinylated 20-mers (Example 6, TABLE 6); settings: 100 = no competitor
T4 construct: protein spans from amino terminal end of first PDZ domain to carboxy-terminal end of third PDZ domain in frame with GST in vector; made in house; host or cells: E. coli DH5alpha
T4 sequence (Q12959 224-546 limits assumed): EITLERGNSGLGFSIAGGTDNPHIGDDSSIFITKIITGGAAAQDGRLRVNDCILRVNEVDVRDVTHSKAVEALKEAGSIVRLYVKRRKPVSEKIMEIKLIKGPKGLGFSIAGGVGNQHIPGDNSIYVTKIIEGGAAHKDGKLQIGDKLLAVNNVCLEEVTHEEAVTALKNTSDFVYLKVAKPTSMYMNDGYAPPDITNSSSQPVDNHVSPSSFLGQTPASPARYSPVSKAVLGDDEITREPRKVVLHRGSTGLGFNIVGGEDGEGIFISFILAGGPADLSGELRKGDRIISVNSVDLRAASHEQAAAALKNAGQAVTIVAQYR
From the text: (§6) The potential for unlabeled 8-mers and 3-mers to compete for binding with biotinylated 20-mers to PDZ domains was examined. Interactions between a PDZ domain and two or more biotinylated peptides mimicking PDZ ligands identified through the ‘G Assay’ were used as model interactions. Short, 3 or 8 amino acid, unlabeled peptides were synthesized by standard techniques and used at variable concentrations with a set concentration of biotinylated 20-mer. Ability of both the 3-mer and 8-mer to inhibit longer peptide binding was observed, making PDZ:PL interactions an attractive target for design of small molecule or peptide therapeutics.
(§7) Peptides representing the C-terminal 3, 8 or 20 amino acids of a PDZ ligand were synthesized by standard FMOC chemistry and biotinylated if not used as an unlabeled competitor. Peptides three amino acids in length were acetylated to more properly mimic the peptide bond without introducing an amino-terminal charged group. Peptides were purified by reverse phase high performance liquid chromatography (HPLC) using a Vydac 218TP C18 Reversed Phase column having the dimensions of 10*25 mm, 5 um. Approximately 40 mg of peptide was dissolved in 2.0 ml of and aqueous solution of 49.9% acetonitrile and 0.1% Tri-Fluoro acetic acid (TFA). This solution was then injected into the HPLC machine through a […] syringe filter (Millipore). Buffers used to get a good separation are (A) distilled water with 0.1% TFA and (B) 0.1% TFA with Acetonitrile.
(§8) The G Assay was performed as described in EXAMPLE 3 with the exception that when a short competitor was used, 30 ul of competitor peptide (at twice the final concentration) was mixed with 30 ul biotinylated 20-mer (at twice the final concentration) and then added to the well.
(§9) PSD-95 and DLG-1 were incubated in the wells at 5 ug/ml as described in the G Assay protocol. Biotinylated 20-mer peptides used were 20 uM CLASP-2, 20 uM CD46, 10 uM CD95, and 10 uM KV1.3 (find sequences of peptides in TABLE 8). Competitors (unlabeled, short peptides) tested against each of the biotinylated peptides were 50 uM 8-mer of CD95, 100 uM 8-mer of CD46, 50 uM 8-mer of CLASP-2, and 1 mM and 500 uM acetylated 3-mer of CLASP-2. To deduce sequences, refer to TABLE 8. All absorbances were read at 450 nm after stopping TMB detection reaction at 30 min. Results were normalized in each group by dividing its A450 by the A450 of the PDZ/peptide binding in the absence of competitor and converting to percentage by multiplying by 100.

PSD-95 = biological target: T5, PSD-95 (Homo sapiens, UniProt P78352); assay: as above; settings: for % binding: 100 = no competitor
T5 construct: protein spans from amino terminal end of first PDZ domain to carboxy-terminal end of third PDZ domain in frame with GST in vector; made in house; host or cells: E. coli DH5alpha
T5 sequence (P78352 58-398 limits assumed): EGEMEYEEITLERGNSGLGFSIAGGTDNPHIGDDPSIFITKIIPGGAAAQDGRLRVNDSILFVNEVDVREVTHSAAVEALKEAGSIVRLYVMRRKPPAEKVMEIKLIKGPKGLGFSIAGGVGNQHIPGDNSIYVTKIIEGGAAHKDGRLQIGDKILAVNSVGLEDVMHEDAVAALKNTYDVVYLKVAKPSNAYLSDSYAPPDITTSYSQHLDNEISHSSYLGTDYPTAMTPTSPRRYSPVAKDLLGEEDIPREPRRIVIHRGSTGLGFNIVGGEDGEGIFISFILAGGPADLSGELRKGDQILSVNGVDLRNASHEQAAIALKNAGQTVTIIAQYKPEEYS
From the text: as §6, §7, §8, §9

[5] = biological target: T6, PDZ protein (GST-PDZ fusion) (Homo sapiens, UniProt O15018); assay: G' assay (10 uM PL peptide), results of TABLE 7 and TABLE 12; settings: PDZ AIPC, PDZ Domain 1
T6 construct: made in house; host or cells: E. coli (DH5alpha, BL21 or JM109)
From the text: as §1, §2, §3, §4, §5

[6] = biological target: T7, PDZ protein (GST-PDZ fusion) (Homo sapiens, UniProt O14907); assay: as above; settings: PDZ TIP1, PDZ Domain 1
T7 construct: made in house; host or cells: E. coli (DH5alpha, BL21 or JM109)
T7 sequence (O14907 1-124): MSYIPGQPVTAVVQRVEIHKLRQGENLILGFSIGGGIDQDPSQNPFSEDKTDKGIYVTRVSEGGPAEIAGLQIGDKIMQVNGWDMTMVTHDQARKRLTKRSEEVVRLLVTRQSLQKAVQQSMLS
From the text: as §1, §2, §3, §4, §5

[7] = biological target: T8, PDZ protein (GST-PDZ fusion) (Homo sapiens, UniProt Q9NZN5); assay: as above; settings: PDZ KIAA0382, PDZ Domain 1
T8 construct: made in house; host or cells: E. coli (DH5alpha, BL21 or JM109)
From the text: as §1, §2, §3, §4, §5

[8] = biotinylated 20-mer CD46 20 uM, competitor 50 uM
[9] = biotinylated 20-mer CD95 10 uM, competitor 50 uM
[10] = biotinylated 20-mer CLASP-2 20 uM, competitor 50 uM
[11] = biotinylated 20-mer CD46 20 uM, competitor 100 uM
[12] = biotinylated 20-mer CD95 10 uM, competitor 100 uM
[13] = biotinylated 20-mer CLASP-2 20 uM, competitor 100 uM
[14] = biotinylated 20-mer KV1.3 10 uM, competitor 100 uM
[15] = biotinylated 20-mer CD46 20 uM, competitor 500 uM
[16] = biotinylated 20-mer CD46 20 uM, competitor 1000 uM
[17] = biotinylated 20-mer CD95 10 uM, competitor 500 uM
[18] = biotinylated 20-mer CD95 10 uM, competitor 1000 uM
[19] = biotinylated 20-mer CLASP-2 20 uM, competitor 500 uM
[20] = biotinylated 20-mer CLASP-2 20 uM, competitor 1000 uM

Substance: GTSDMKDLVGNIEQNEHSVI [Mannose Receptor]
- Classification [1]: 1 (A450 nm 0-1)
- Classification ([2]; PDZ KIAA807): 1 (A450 nm 0-1)
- Classification ([2]; PDZ KIAA0807(S), PDZ Domain 1): 1 (A450 nm 0-1)
- Classification ([3]; PDZ FLJ 00011, PDZ Domain 1): 1 (A450 nm 0-1)

- Classification [4]: 1 (A450 nm 0-1)
Substance: SSPTYRALLLQGPSQSSSEA (Biotin-SSPTYRALLLQGPSQSSSEA)

Substance: MTSSSSVV [CLASP-2 8-mer, unlabeled peptide of the C-terminal 8 amino acids of CLASP-2]
- % binding (DLG-1; [8]): 105%
- % binding (DLG-1; [9]): 75%
- % binding (DLG-1; [10]): 93%
- % binding (PSD-95; [8]): 90%
- % binding (PSD-95; [9]): 80%
- % binding (PSD-95; [10]): 85%
- % binding (PSD-95; biotinylated 20-mer KV1.3 10 uM, competitor 50 uM): 82%

- Classification [5]: 1 (A450 nm 0-1)
- Classification [1]: 1 (A450 nm 0-1)
- Classification ([2]; PDZ KIAA807): 1 (A450 nm 0-1)
- Classification ([2]; PDZ KIAA0807(S), PDZ Domain 1): 1 (A450 nm 0-1)
Substance: ACM3_HUMAN (Biotin-QQYQQRQSVIFHKRAPEQAL)

Substance: SEGGRPTRGPRLQGRRVTQV [HPV E6 52 (modified)]
- Classification [6]: 0 (A450 nm 0, i.e., not found to interact)
- Classification ([3]; PDZ BAI-1, PDZ Domain 2): 5 (A450 nm of 4 more than 2× repeated)

Substance: SGGNRARQERLQRRRETQV (Biotin-SGGNRARQERLQRRRETQV) [HPV E6 #18]
- Classification [6]: 4 (A450 nm 3-4)
- Classification ([3]; PDZ BAI-1, PDZ Domain 2): 5 (A450 nm of 4 more than 2× repeated)

- Classification [6]: 1 (A450 nm 0-1)
Substance: GPDGIITVNDFTQNPRVQLE (Biotin-GPDGIITVNDFTQNPRVQLE) [ropporin]

- % binding (DLG-1; [11]): 90%
- % binding (DLG-1; [12]): 68%
- % binding (DLG-1; [13]): 90%
- % binding (DLG-1; [14]): 63%
- % binding (PSD-95; [11]): 95%
- % binding (PSD-95; [12]): 65%
- % binding (PSD-95; [13]): 81%
- % binding (PSD-95; [14]): 71%
Substance: REVKFTSL [CD46 8-mer, unlabeled peptide of the C-terminal 8 amino acids of CD46]

- Classification ([2]; PDZ KIAA807): 5 (A450 nm of 4 more than 2× repeated)
- Classification ([2]; PDZ KIAA0807(S), PDZ Domain 1): 5 (A450 nm of 4 more than 2× repeated)
- Classification [7]: 2 (A450 nm 1-2)
Substance: KDSRPSFVGSSSGHTSTTL (Biotin-KDSRPSFVGSSSGHTSTTL) [CDw128B]
- Classification ([3]; PDZ SHANK, PDZ Domain 1): 3 (A450 nm 2-3)

- % binding (DLG-1; [15]): 72%
- % binding (DLG-1; [16]): 45%
- % binding (DLG-1; [17]): 51%
- % binding (DLG-1; [18]): 46%
- % binding (DLG-1; [19]): 61%
- % binding (DLG-1; [20]): 59%
- % binding (PSD-95; [15]): 75%
- % binding (PSD-95; [16]): 59%
- % binding (PSD-95; [17]): 55%
- % binding (PSD-95; [18]): 55%
- % binding (PSD-95; [19]): 82%
- % binding (PSD-95; [20]): 63%
- % binding (PSD-95; biotinylated 20-mer KV1.3 10 uM, competitor 500 uM): 81%
- % binding (PSD-95; biotinylated 20-mer KV1.3 10 uM, competitor 1000 uM): 50%
- reduction of labeled ligand binding (PSD-95; competitor 1 mM, 50-100-fold excess, summary of TABLE 6, PDZ not given): up to 50%
Substance: SVV [CLASP-2 3-mer, acetylated peptide of the C-terminal 3 amino acids of CLASP-2]
